The subject of one experiment is HAB1. The experiment can be described thus: Y2H X-gal staining of evolved sensors: ligand responsiveness and cross reaction. The experiment is classed as cell-based, Arabidopsis. The note with it: Y2H, FIG. 7; WIN 55,212-2 or 4F-MDMB-BUTINACA
How it is done: (§1) High-affinity sensors were tested for cross reaction using both Y2H and in vitro PP2C assays. […] Similar methods were used to characterize PYR1^PIRI and PYR1^WIN sensor selectivity and sensitivity.
The PYL2 coding sequence cloned in the Y2H pBD vector was used as template to incorporate the corresponding PYR1^WIN and PYR1^4F homologous residues via site directed mutagenesis using the QuikChange Lightning Multi Site-Directed mutagenesis kit (Agilent Technologies). Resulting clones PYL2^WIN (K64Q, F165A, V1661) and PYL2^4F (H119Q, Y124G, F165V, V166G) were sequence confirmed and incorporated into MAV99 harboring pACT-HAB1 and tested for ligand activation using uracil-independent growth and X-gal staining experiments. The same method was used to generate a PYL2^WIN version in a protein expression vector for crystallization studies.

Another experiment relates to ΔN-HAB1. The experiment can be described thus: Ligand/receptor-mediated PP2C (ΔN-HAB1 phosphatase) inhibition by recombinant PYR1 sensors. The experiment is classed as biochemical, Arabidopsis. The note with it: for response of evolved organophosphate receptors to native ligand ABA: HAB1 inhibition and Y2H assays, ABA tested at 5000 nM in Y2H; for EC50: read-out: EC50, receptor-mediated inhibition of HAB1 phosphatase activity in vitro. The procedure: Coding sequences of the cannabinoid sensors were cloned into the protein expression vector pET28a to encode 6×His-tag-receptor fusions.
as §1

The next experiment relates to Luc^N-PYR1/Luc^C-ΔN-HAB1. Briefly: In vivo split NanoLuc luciferase complementation in yeast. The experiment is classed as cell-based, S. cerevisiae. As to conditions: read-out: EC50 split luciferase reconstitution. The procedure: Ligand was added to yeast cultures 12 h prior to measuring cell luminescence. A sample of each culture was diluted to an OD600 of 0.2, 10 μL of which was transferred to a 96-well plate, the luciferase reagent mixture (Nano-Glo live cell substrate; Promega) diluted to a 1× concentration with DI water was added to the cell sample to a final volume of 200 μL. The relative luminescence signal (RLU) was measured using a Synergy™ Neo2 Multi-Mode Microplate Reader in luminescence detection mode for 30 minutes after the addition of the reagents. The RLU of each measured sample was taken as the average value of the time course once the signal had reached a plateau.
A protein complementation output assay of evolved PYR-based sensors was carried out by NanoLuc split luciferase (19). The larger fragment, LgBit (or Luc^N), was fused to N-terminus of PYR1 variants, while the small fragment, SmBit (or Luc^C) was fused to N-terminus of ΔN-HAB1. […] Ligand was added to yeast cultures 12 hour prior to measuring cell luminescence. […] The relative luminescence signal (RLU) was immediately measured continuously in a Synergy™ Neo2 Multi-Mode Microplate Reader over 30 minutes. The average value of RLU of each measured sample was taken once the measurements had reached a stable value. […]

Entries after “also recorded” stand apart in the source; their conditions may differ. Where two headings read alike, the source gives them in different places.

Three molecules from patent US20260258397A1, “REAGENTS AND SYSTEMS FOR […]” (priority 2023, published 2026) can be followed below.

B1: PYL2^WIN: PYL2 sensor (K64Q, F165A, V1661), SEQ ID NO: 37 (protein)
chain: MSSSPAVKGLTDEEQKTLEPVIKTYHQFEPDPTTCTSLITQRIHAPASVVWPLIRRFDNPERYQHFVKRCRLISGDGDVGSVREVTVISGLPASTSTERLEFVDDDHRVLSFRVVGGEHRLKNYKSVTSVNEFLNQDSGKVYTVVLESYTVDIPEGNTEEDTKMAIDTVVKLNLQKLGVAATSAPMHDDE
Turning to B1, the “ligand responsiveness of PYL2 transposed sensors” value in the experiment on HAB1 is on record as “nM ligand responsiveness”.

B2: PYR1^PIRI (protein)
chain: MPSELTPEERSELKNSIAEFHTYQLDPGSCSSLHAQRIHAPPELVWSIVRRFDKPQTYRHFIKSCSVEQNFEMRVGCTRDVIVISGLPANTMTERLDILDDERRVTGFSIIGGEHRLTSYKQVTTVHRFGKENRIWTVVLESYVVDMPEGNSEDDTRMTTDTVVKLNLQKLATAAEAMARNSGDGSGSQVT
As usually defined, the EC50 is the concentration that produces a half-maximal response. As for B2, the “response of evolved organophosphate receptors to native ligand ABA” value in the experiment on ΔN-HAB1 is on record as “no longer bind the native ligand ABA; also recorded: neither receptor was activated by ABA”. Besides, the EC50 turned out to be 58 nM on ΔN-HAB1 (sensor PYR1^PIRI, ligand pirimiphos-methyl) and 19 nM with Luc^N-PYR1/Luc^C-ΔN-HAB1 (Luc^N-PYR1^PIRI/Luc^C-HAB1 in yeast, ligand pirimiphos-methyl).

B3: PYR1^DIAZI (protein)
chain: MPSELTPGERSELKNSIAEFHTYQLDPGSCSSLHAQRIHAPPELVWSIVRRFDKPQTYKHFIKSCSVEQNFEMRVGCTRDYIVISGMPANTSTERLDILDDERRVTGYSIIGGEHRLTNYKSVTTVHRFEKENRIWTVVLESYVVDMPEGNSEDDTRVGVDTVVKLNLQKLATVAEAMARNSGDGSGSQVT
Turning to B3, in the experiment with ΔN-HAB1, the “response of evolved organophosphate receptors to native ligand ABA” value is “no longer bind the native ligand ABA; also recorded: neither receptor was activated by ABA”. Also, the EC50 at ΔN-HAB1 (sensor PYR1^DIAZI, ligand diazinon) turned out to be 36 nM; with Luc^N-PYR1/Luc^C-ΔN-HAB1 (Luc^N-PYR1^DIAZI/Luc^C-HAB1 in yeast, ligand diazinon) it was 24 nM.
